# Laboratory results: IntAct's records for PubMed 25009770
# B1: Chorionic somatomammotropin hormone 1 (Homo sapiens), P0DML2 (parent)
# chain: MAPGSRTSLLLAFALLCLPWLQEAGAVQTVPLSRLFDHAMLQAHRAHQLAIDTYQEFEETYIPKDQKYSFLHDSQTSFCFSDSIPTPSNMEETQQKSNLELLRISLLLIESWLEPVRFLRSMFANNLVYDTSDSDDYHLLKDLEEGIQTLMGRLEDGSRRTGQILKQTYSKFDTNSHNHDALLKNYGLLYCFRKDMDKVETFLRMVQCRSVEGSCGF
# partner: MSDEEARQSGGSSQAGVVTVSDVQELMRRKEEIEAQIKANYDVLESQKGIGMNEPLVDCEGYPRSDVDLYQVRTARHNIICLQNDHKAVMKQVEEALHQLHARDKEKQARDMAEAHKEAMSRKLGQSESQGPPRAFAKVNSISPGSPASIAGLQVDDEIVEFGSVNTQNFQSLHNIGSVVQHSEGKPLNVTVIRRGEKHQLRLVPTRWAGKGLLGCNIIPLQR
# B2: Transcription factor E2-alpha (Homo sapiens), P15923-1 (parent)
# chain: MNQPQRMAPVGTDKELSDLLDFSMMFPLPVTNGKGRPASLAGAQFGGSGLEDRPSSGSWGSGDQSSSSFDPSRTFSEGTHFTESHSSLSSSTFLGPGLGGKSGERGAYASFGRDAGVGGLTQAGFLSGELALNSPGPLSPSGMKGTSQYYPSYSGSSRRRAADGSLDTQPKKVRKVPPGLPSSVYPPSSGEDYGRDATAYPSAKTPSSTYPAPFYVADGSLHPSAELWSPPGQAGFGPMLGGGSSPLPLPPGSGPVGSSGSSSTFGGLHQHERMGYQLHGAEVNGGLPSASSFSSAPGATYGGVSSHTPPVSGADSLLGSRGTTAGSSGDALGKALASIYSPDHSSNNFSSSPSTPVGSPQGLAGTSQWPRAGAPGALSPSYDGGLHGLQSKIEDHLDEAIHVLRSHAVGTAGDMHTLLPGHGALASGFTGPMSLGGRHAGLVGGSHPEDGLAGSTSLMHNHAALPSQPGTLPDLSRPPDSYSGLGRAGATAAASEIKREEKEDEENTSAADHSEEEKKELKAPRARTSPDEDEDDLLPPEQKAEREKERRVANNARERLRVRDINEAFKELGRMCQLHLNSEKPQTKLLILHQAVSVILNLEQQVRERNLNPKAACLKRREEEKVSGVVGDPQMVLSAPHPGLSEAHNPAGHM
# partner: B1 partner
# B3: 26S proteasome non-ATPase regulatory subunit 9 (Homo sapiens), O00233 (parent)
# chain: B1 partner
# B4: Heterogeneous nuclear ribonucleoprotein A1 (Homo sapiens), P09651-2 (parent)
# chain: MSKSESPKEPEQLRKLFIGGLSFETTDESLRSHFEQWGTLTDCVVMRDPNTKRSRGFGFVTYATVEEVDAAMNARPHKVDGRVVEPKRAVSREDSQRPGAHLTVKKIFVGGIKEDTEEHHLRDYFEQYGKIEVIEIMTDRGSGKKRGFAFVTFDDHDSVDKIVIQKYHTVNGHNCEVRKALSKQEMASASSSQRGRSGSGNFGGGRGGGFGGNDNFGRGGNFSGRGGFGGSRGGGGYGGSGDGYNGFGNDGSNFGGGGSYNDFGNYNNQSSNFGPMKGGNFGGRSSGPYGGGGQYFAKPRNQGGYGGSSSSSSYGSGRRF
# partner: B1 partner
# Variants of: B1
# Settings: with psmd9_human PSMD9, O00233
row,Variant,effect of a mutation on the interaction
1,F217G,with no effect

# Variants of: B2
# Settings: with psmd9_human PSMD9, O00233
row,Variant,effect of a mutation on the interaction
1,M654G,decreasing interaction strength

# Variants of: B3
# Settings: with csh1_human CSH1, P0DML2
row,Variant,effect of a mutation on the interaction
1,L153G,decreasing interaction strength
2,F162G,decreasing interaction strength

# Variants of: B3
# Settings: with HNRNPA1, P09651-2
row,Variant,effect of a mutation on the interaction
1,L153G,decreasing interaction strength
2,F162G,decreasing interaction strength

# Variants of: B3
# Settings: with HNRNPA1, P09651-2
# Remark: another data set of the same source
row,Variant,effect of a mutation on the interaction
1,L153G,disrupting interaction strength
2,Q181G,disrupting interaction strength
3,F162G,disrupting interaction strength
4,L173G,with no effect
5,L124G;Q126G;E128G,disrupting interaction strength

# Variants of: B3
# Settings: with csh1_human CSH1, P0DML2
# Remark: another data set of the same source
row,Variant,effect of a mutation on the interaction
1,L153G,disrupting interaction strength
2,Q181G,decreasing interaction strength
3,F162G,disrupting interaction strength
4,L173G,with no effect
5,L124G;Q126G;E128G,disrupting interaction strength

# Variants of: B3
# Settings: with rs14_human RPS14, P62263
row,Variant,effect of a mutation on the interaction
1,L153G,disrupting interaction strength
2,Q181G,disrupting interaction strength
3,F162G,decreasing interaction strength
4,L173G,with no effect
5,L124G;Q126G;E128G,disrupting interaction strength

# Variants of: B3
# Settings: with IL6R
row,Variant,effect of a mutation on the interaction
1,L153G,disrupting interaction strength
2,Q181G,disrupting interaction strength
3,F162G,disrupting interaction strength
4,L173G,with no effect
5,L124G;Q126G;E128G,disrupting interaction strength

# Variants of: B3
# Settings: with HNRNPA1, P09651-2
# Remark: another data set of the same source
row,Variant,effect of a mutation on the interaction
1,Q181G,decreasing interaction strength
2,L124G;Q126G;E128G,decreasing interaction strength

# Variants of: B4
# Settings: with psmd9_human PSMD9, O00233
row,Variant,effect of a mutation on the interaction
1,F320G,disrupting interaction strength

# Variants of: B4
# Settings: with psmd9_human PSMD9, O00233
# Remark: another data set of the same source
row,Variant,effect of a mutation on the interaction
1,F320G,decreasing interaction strength

# Variants of: B4
# Settings: with psmd9_human PSMD9, O00233
# Remark: another data set of the same source
row,Variant,effect of a mutation on the interaction
1,F320G,with no effect
